These results are taken from the supplement of paper PMC10567573.

B1: KLHL14 (parent)
chain: WLYCYDPVMDVWARKQDMNTKRAI
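Further: lentivirally expressed fusions sorted by FACS into six bins by GFP to DsRed ratio, PSI derived from sequencing read proportions per bin multiplied by bin number.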

Variants of B1 are the subject of this data set. Kind of data set: protein stability index of a GFP-peptide fusion (GPS, HEK-293T) (PSI 1-6); higher = more stable. The settings on record: c terminus: a fixed tail appended.
On to WLECYDPVMDVWARKQDMNTKRAI [Y3E], for which the protein stability index is 2.33.

Turning to WLPCYDPVMDVWARKQDMNTKRAI [Y3P], the protein stability index was determined as 2.7. For WLCCYDPVMDVWARKQDMNTKRAI [Y3C], the protein stability index is 2.64.

In the case of WLRCYDPVMDVWARKQDMNTKRAI [Y3R], the protein stability index was found to be 1.25. Consider WLNCYDPVMDVWARKQDMNTKRAI [Y3N], for which the protein stability index turned out to be 2.12. As to WLMCYDPVMDVWARKQDMNTKRAI [Y3M], the protein stability index was 1.96. For the variant WLDCYDPVMDVWARKQDMNTKRAI [Y3D], the protein stability index came out at 2.44. On to WLKCYDPVMDVWARKQDMNTKRAI [Y3K], for which the protein stability index worked out at 2.09. In the case of WLLCYDPVMDVWARKQDMNTKRAI [Y3L] it was 2.15; in that of WLTCYDPVMDVWARKQDMNTKRAI [Y3T], 2.36; in that of WLICYDPVMDVWARKQDMNTKRAI [Y3I], 2.06.

Turning to WLACYDPVMDVWARKQDMNTKRAI [Y3A], the protein stability index came out at 2.02.

For the variant WLFCYDPVMDVWARKQDMNTKRAI [Y3F], the protein stability index was found to be 1.65. For the variant WLSCYDPVMDVWARKQDMNTKRAI [Y3S], the protein stability index stood at 1.77.

In the case of WLVCYDPVMDVWARKQDMNTKRAI [Y3V], the protein stability index was determined as 2.86. Turning to WLWCYDPVMDVWARKQDMNTKRAI [Y3W], the protein stability index was 2.42. For WLGCYDPVMDVWARKQDMNTKRAI [Y3G], the protein stability index turned out to be 2.01. As to WLYCYCPVMDVWARKQDMNTKRAI [D6C], the protein stability index was 2.14.

As to WLYCYVPVMDVWARKQDMNTKRAI [D6V], the protein stability index stood at 2.23. WLYCYAPVMDVWARKQDMNTKRAI [D6A]: the protein stability index was 3.01. With WLYCYWPVMDVWARKQDMNTKRAI [D6W], the protein stability index stood at 3.19. WLYCYKPVMDVWARKQDMNTKRAI [D6K]: the protein stability index turned out to be 2.11. As for WLYCYTPVMDVWARKQDMNTKRAI [D6T], the figure is 2.47; as for WLYCYEPVMDVWARKQDMNTKRAI [D6E], 1.74. WLYCYGPVMDVWARKQDMNTKRAI [D6G]: the protein stability index was determined as 2.9. Turning to WLYCYNPVMDVWARKQDMNTKRAI [D6N], the protein stability index came to 1.78.

Regarding WLYCYQPVMDVWARKQDMNTKRAI [D6Q], the protein stability index is 2.29. As to WLYCYFPVMDVWARKQDMNTKRAI [D6F], the protein stability index worked out at 2.99.

On to WLYCYIPVMDVWARKQDMNTKRAI [D6I], for which the protein stability index turned out to be 1.83.

Regarding WLYCYRPVMDVWARKQDMNTKRAI [D6R], the protein stability index worked out at 1.4. As to WLYCYPPVMDVWARKQDMNTKRAI [D6P], the protein stability index was determined as 1.84. For WLYCYSPVMDVWARKQDMNTKRAI [D6S], the protein stability index turned out to be 1.7.

Turning to WLYCYHPVMDVWARKQDMNTKRAI [D6H], the protein stability index is 2.6. Turning to WLYCYYPVMDVWARKQDMNTKRAI [D6Y], the protein stability index was 2.54. As for WLYCYMPVMDVWARKQDMNTKRAI [D6M], the figure is 2.33; as for WLYCVDPVMDVWARKQDMNTKRAI [Y5V], 1.98. Turning to WLYCIDPVMDVWARKQDMNTKRAI [Y5I], the protein stability index was determined as 1.93.

For the variant WLYCADPVMDVWARKQDMNTKRAI [Y5A], the protein stability index was 1.92. For the variant WLYCDDPVMDVWARKQDMNTKRAI [Y5D], the protein stability index was 2.61.

Take WLYCCDPVMDVWARKQDMNTKRAI [Y5C]: the protein stability index is 2.25. For the variant WLYCEDPVMDVWARKQDMNTKRAI [Y5E], the protein stability index came to 2.23. With WLYCQDPVMDVWARKQDMNTKRAI [Y5Q], the protein stability index was 1.6. In the case of WLYCHDPVMDVWARKQDMNTKRAI [Y5H] it was 1.91; in that of WLYCKDPVMDVWARKQDMNTKRAI [Y5K], 2.46. In the case of WLYCRDPVMDVWARKQDMNTKRAI [Y5R], the protein stability index is 2.26. Regarding WLYCTDPVMDVWARKQDMNTKRAI [Y5T], the protein stability index is 1.83. With WLYCSDPVMDVWARKQDMNTKRAI [Y5S], the protein stability index amounted to 2.46. With WLYCGDPVMDVWARKQDMNTKRAI [Y5G], the protein stability index was 2.43. As for WLYCNDPVMDVWARKQDMNTKRAI [Y5N], the figure is 2.08; as for WLYCMDPVMDVWARKQDMNTKRAI [Y5M], 1.92; as for WLYCLDPVMDVWARKQDMNTKRAI [Y5L], 2.24.

As to WLYCWDPVMDVWARKQDMNTKRAI [Y5W], the protein stability index is 1.44. WLYCPDPVMDVWARKQDMNTKRAI [Y5P]: the protein stability index was 2.9.

In the case of WLYCFDPVMDVWARKQDMNTKRAI [Y5F], the protein stability index turned out to be 2.31. As for WLYCYDPDMDVWARKQDMNTKRAI [V8D], the figure is 2.37.

Take WLYCYDPEMDVWARKQDMNTKRAI [V8E]: the protein stability index is 2.17. With WLYCYDPCMDVWARKQDMNTKRAI [V8C], the protein stability index is 1.81.

For WLYCYDPAMDVWARKQDMNTKRAI [V8A], the protein stability index came to 1.76. For the variant WLYCYDVVMDVWARKQDMNTKRAI [P7V], the protein stability index turned out to be 2.08. In the case of WLYCYDCVMDVWARKQDMNTKRAI [P7C], the protein stability index was 2.33. Consider WLYCYDTVMDVWARKQDMNTKRAI [P7T], for which the protein stability index stood at 1.64. For WLYCYDYVMDVWARKQDMNTKRAI [P7Y], the protein stability index was 2.15. WLYCYDDVMDVWARKQDMNTKRAI [P7D]: the protein stability index was 2.28.

Take WLYCYDMVMDVWARKQDMNTKRAI [P7M]: the protein stability index was found to be 1.98.

Take WLYCYDAVMDVWARKQDMNTKRAI [P7A]: the protein stability index amounted to 2.87.

As for WLYCYDKVMDVWARKQDMNTKRAI [P7K], the protein stability index was 2.24.

As to WLYCYDFVMDVWARKQDMNTKRAI [P7F], the protein stability index worked out at 3.12. On to WLYCYDSVMDVWARKQDMNTKRAI [P7S], for which the protein stability index turned out to be 1.62. Regarding WLYCYDRVMDVWARKQDMNTKRAI [P7R], the protein stability index worked out at 1.87.

With WLYCYDEVMDVWARKQDMNTKRAI [P7E], the protein stability index amounted to 1.88. With WLYCYDIVMDVWARKQDMNTKRAI [P7I], the protein stability index came out at 1.93.

Regarding WLYCYDGVMDVWARKQDMNTKRAI [P7G], the protein stability index amounted to 1.94.

For the variant WLYCYDNVMDVWARKQDMNTKRAI [P7N], the protein stability index stood at 1.84. On to WLYCYDQVMDVWARKQDMNTKRAI [P7Q], for which the protein stability index turned out to be 1.51. Regarding WLYCYDHVMDVWARKQDMNTKRAI [P7H], the protein stability index amounted to 2.1. Take MLYCYDPVMDVWARKQDMNTKRAI [W1M]: the protein stability index is 2.62. For DLYCYDPVMDVWARKQDMNTKRAI [W1D], the protein stability index was 4.41. As to NLYCYDPVMDVWARKQDMNTKRAI [W1N], the protein stability index was determined as 3.29.

For SLYCYDPVMDVWARKQDMNTKRAI [W1S], the protein stability index came to 3.06.

For the variant QLYCYDPVMDVWARKQDMNTKRAI [W1Q], the protein stability index is 3.33.

Turning to GLYCYDPVMDVWARKQDMNTKRAI [W1G], the protein stability index was 2.4. Take TLYCYDPVMDVWARKQDMNTKRAI [W1T]: the protein stability index came to 3.09. For ILYCYDPVMDVWARKQDMNTKRAI [W1I], the protein stability index came to 1.92. In the case of KLYCYDPVMDVWARKQDMNTKRAI [W1K] it was 2.55.

PLYCYDPVMDVWARKQDMNTKRAI [W1P]: the protein stability index was 2.88. As for RLYCYDPVMDVWARKQDMNTKRAI [W1R], the figure is 2.55. As to YLYCYDPVMDVWARKQDMNTKRAI [W1Y], the protein stability index came to 2.25. Take CLYCYDPVMDVWARKQDMNTKRAI [W1C]: the protein stability index turned out to be 2.27.

As for VLYCYDPVMDVWARKQDMNTKRAI [W1V], the protein stability index amounted to 1.63. Consider HLYCYDPVMDVWARKQDMNTKRAI [W1H], for which the protein stability index is 3.4. In the case of FLYCYDPVMDVWARKQDMNTKRAI [W1F] it was 1.99.

Take ALYCYDPVMDVWARKQDMNTKRAI [W1A]: the protein stability index was 2.56.

As to ELYCYDPVMDVWARKQDMNTKRAI [W1E], the protein stability index worked out at 3.72. With LLYCYDPVMDVWARKQDMNTKRAI [W1L], the protein stability index was determined as 2.53.
